Consider twelve sequences from the Immune Epitope Database (IEDB).

In one assay the target is HLA-C*14:02. In words: IEDB peptide-MHC binding, purified MHC/direct/fluorescence; filed as Kd, often an IC50 or EC50 that approximates it; ≥ and ≤ were set here for values at or beyond the usual limits of such assays.
Assay [1] deals with HLA-B*08:01. Put plainly: IEDB peptide-MHC binding, purified MHC/competitive/fluorescence; filed as Kd, often an IC50 or EC50 that approximates it; ≥ and ≤ were set here for values at or beyond the usual limits of such assays. The following applies: source organism: Bacillus anthracis str. A0488.
Assay [2] has as its target HLA-A*26:01. In words: IEDB peptide-MHC binding, purified MHC/direct/fluorescence; filed as Kd, often an IC50 or EC50 that approximates it; ≥ and ≤ were set here for values at or beyond the usual limits of such assays.
In the next assay the target is HLA-A*69:01. Described as above.
The next assay deals with HLA-A*03:01. The description is as above.
In assay [3] the target is HLA-B*07:02. The assay is described as above.
In another assay the target is HLA-B*58:01. The assay is described as above.
Assay [4] deals with HLA-B*27:05. The assay is described as above.
In a further assay the target is HLA-A*01:01. The assay is described as above.
The target of another assay is HLA-B*40:01. The description is as above.
Another assay has as its target HLA-A*11:01. The assay is described as above.
Assay [5] concerns the target HLA-A*02:01. The assay is described as above.
The next assay deals with HLA-A*30:01. The assay is described as above.
The next assay concerns the target HLA-A*24:03. The description is as above.
In assay [6] the target is HLA-B*08:01. The assay is described as above.
The target in the next assay is HLA-C*12:03. Described as above.
A further assay has as its target HLA-C*06:02. The assay is described as above.
The target of a further assay is HLA-C*03:03. The description is as above. The settings on record: source organism: Bacillus mycoides KBAB4.
A further assay deals with HLA-B*08:02. The assay is described as above. The settings on record: source organism: dengue virus type 4.
Another assay deals with HLA-C*07:02. The assay is described as above.
In another assay the target is HLA-C*15:02. The description is as above. The following applies: source organism: Cytophaga hutchinsonii ATCC 33406.
Assay [7] addresses HLA-A*02:01. In words: IEDB peptide-MHC binding, purified MHC/competitive/fluorescence; filed as Kd, often an IC50 or EC50 that approximates it; ≥ and ≤ were set here for values at or beyond the usual limits of such assays.
Assay [8] deals with HLA-B*07:02. In words: IEDB peptide-MHC binding, purified MHC/competitive/fluorescence; ≥ and ≤ were set here for values at or beyond the usual limits of such assays.
A further assay has as its target HLA-A*31:01. Put plainly: IEDB peptide-MHC binding, purified MHC/direct/fluorescence; filed as Kd, often an IC50 or EC50 that approximates it; ≥ and ≤ were set here for values at or beyond the usual limits of such assays.
The target in assay [9] is HLA-B*15:01. Described as above.
The next assay has as its target HLA-B*46:01. In words: IEDB peptide-MHC binding, purified MHC/competitive/fluorescence; filed as Kd, often an IC50 or EC50 that approximates it; ≥ and ≤ were set here for values at or beyond the usual limits of such assays.
For another assay, the target named is HLA-A*02:19. In words: IEDB peptide-MHC binding, purified MHC/direct/fluorescence; filed as Kd, often an IC50 or EC50 that approximates it; ≥ and ≤ were set here for values at or beyond the usual limits of such assays. The settings on record: source organism: Limestone Canyon virus.
A further assay has as its target HLA-A*02:16. The description is as above. The following applies: source organism: Limestone Canyon virus.
Another assay concerns the target HLA-A*02:11. Described as above. The following applies: source organism: Limestone Canyon virus.
The target of a further assay is HLA-A*02:12. The description is as above. The settings on record: source organism: Limestone Canyon virus.
In another assay the target is HLA-A*02:03. The description is as above. The settings on record: source organism: Limestone Canyon virus.
In another assay the target is HLA-A*68:02. Described as above. The settings on record: source organism: Limestone Canyon virus.
Assay [10] addresses HLA-A*26:01. Put plainly: IEDB peptide-MHC binding, purified MHC/competitive/fluorescence; filed as Kd, often an IC50 or EC50 that approximates it; ≥ and ≤ were set here for values at or beyond the usual limits of such assays. The settings on record: source organism: Orthohantavirus sinnombreense.
Another assay addresses HLA-B*18:01. Described as above. The settings on record: source organism: Orthohantavirus sinnombreense.
The target in the next assay is HLA-B*39:01. The assay is described as above. The following applies: source organism: Orthohantavirus sinnombreense.
For the next assay, the target named is HLA-B*15:17. Described as above. The following applies: source organism: Orthohantavirus sinnombreense.
For assay [11], the target named is HLA-B*27:05. Described as above. The settings on record: source organism: Orthohantavirus sinnombreense.
Assay [12] addresses HLA-B*15:01. The assay is described as above. The settings on record: source organism: Orthohantavirus sinnombreense.
Another assay has as its target HLA-B*51:01. The description is as above. The following applies: source organism: Orthohantavirus sinnombreense.
The target in a further assay is HLA-B*57:01. The assay is described as above. The following applies: source organism: Orthohantavirus sinnombreense.
The target of assay [13] is HLA-A*02:01. In words: IEDB peptide-MHC binding, purified MHC/competitive/fluorescence; ≥ and ≤ were set here for values at or beyond the usual limits of such assays. The following applies: source organism: Zaire ebolavirus.
Where [14] appears, read: source organism: Pseudomonas aeruginosa UCBPP-PA14.
Setting [15] is: source organism: Pseudomonas aeruginosa.
Where [16] appears, read: source organism: Bacillus mycoides KBAB4.
[17] abbreviates: source organism: Dengue virus 2 Jamaica/1409/1983.
The mark [18] stands for this setting: source organism: Giardia lamblia ATCC 50803.
Where [19] appears, read: source organism: West Nile virus.
[20] abbreviates: source organism: Limestone Canyon virus.
Where [21] appears, read: source organism: Orthohantavirus sinnombreense.

Where only a bound is given, the exact number is not on record here.

Turning to AANMYIYPL, the Kd (as a rule, the free concentration of one partner at which half of the binding sites on the other are occupied at equilibrium, for simple one-to-one binding) came out at 0.057 µM with HLA-C*14:02 (source organism: Bacillus anthracis str. A0488) and 1.1 µM in the assay with HLA-B*08:01 [1].
AYGSRFHEW: the Kd in the assay with HLA-A*26:01 [2] (setting [14]) is not below 20 µM; with HLA-A*69:01 (setting [14]), not below 20 µM; in the assay with HLA-A*03:01 (setting [14]), not below 20 µM; with HLA-B*07:02 [3] (setting [14]), not below 20 µM; in the assay with HLA-B*58:01 (setting [15]), 4.7 µM; with HLA-B*27:05 [4] (setting [14]), not below 20 µM. Further, the Kd with HLA-A*01:01 (setting [14]) is not below 20 µM; with HLA-B*40:01 (setting [14]), not below 20 µM; with HLA-A*11:01 (setting [14]), not below 20 µM; with HLA-A*02:01 [5] (setting [14]), not below 20 µM; in the assay with HLA-A*30:01 (setting [15]), not below 31.6 µM; with HLA-A*24:03 (setting [15]) it was 0.00184 µM. In the assay with HLA-B*08:01 [6] (setting [14]), this sequence gave a Kd not below 20 µM.
Sequence AYVTWIALM registered a Kd with HLA-C*14:02 (source organism: Mus musculus) of 0.027 µM.
Consider FAFCRITSF, for which the Kd with HLA-C*12:03 (setting [16]) was not above 0.001 µM; in the assay with HLA-C*06:02 (setting [16]), 1.08 µM; in the assay with HLA-C*03:03, 0.002 µM.
In the case of FRKKRLTIM, the Kd in the assay with HLA-C*06:02 (setting [17]) was found to be 0.018 µM; in the assay with HLA-B*08:02 it was 4.43 µM; with HLA-C*07:02 (setting [17]) it was 0.446 µM.
In the case of GLADAFILL, the results for the Kd in the assay with HLA-C*15:02 and with HLA-A*02:01 [7] (source organism: Cytophaga hutchinsonii ATCC 33406) were not below 20 µM and 0.0006 µM, respectively.
For the sequence IPSSSPTTA, the IC50 (commonly the midpoint of a concentration-inhibition curve) with HLA-B*07:02 [8] (source organism: Sudan ebolavirus) came out at 22.1 µM.
On to KQYNVTQAF, for which the Kd with HLA-A*03:01 (source organism: SARS-CoV1) was determined as 6.35 µM; with HLA-A*31:01 (source organism: SARS-CoV1), 0.449 µM; with HLA-B*58:01 (source organism: SARS-CoV1), 1.01 µM; with HLA-B*27:05 [4] (source organism: SARS-CoV1), 0.538 µM; with HLA-B*40:01 (source organism: SARS-CoV1), 5.33 µM; in the assay with HLA-B*15:01 [9] (source organism: SARS-CoV1) it was 0.0871 µM. For the same sequence, the Kd was not below 28.4 µM in the assay with HLA-A*11:01 (source organism: SARS-CoV1), not below 51.3 µM with HLA-A*02:01 [5] (source organism: SARS-CoV1), 0.002 µM in the assay with HLA-C*14:02 (source organism: SARS-CoV1) and 0.0652 µM with HLA-B*46:01 (source organism: SARS-CoV1).
In the case of KVGVYKMHK, the Kd is not below 20 µM in the assay with HLA-A*26:01 [2] (setting [18]); not below 20 µM with HLA-A*69:01 (setting [18]); 0.163 µM in the assay with HLA-A*03:01 (setting [18]); 0.0552 µM with HLA-A*31:01 (setting [18]); not below 20 µM with HLA-B*07:02 [3] (setting [18]); not below 20 µM with HLA-B*58:01 (setting [18]). The Kd was not below 20 µM with HLA-B*27:05 [4] (setting [18]); not below 20 µM with HLA-A*01:01 (setting [18]); not below 20 µM with HLA-B*40:01 (setting [18]); not below 20 µM in the assay with HLA-B*15:01 [9] (setting [18]); 0.0334 µM in the assay with HLA-A*11:01 (setting [18]); not below 20 µM with HLA-A*02:01 [5] (setting [18]). For the same sequence, the Kd with HLA-A*30:01 (setting [18]) was 0.0152 µM; in the assay with HLA-A*24:03 (setting [18]) it was not below 20 µM; in the assay with HLA-B*08:01 [6] (setting [18]), not below 20 µM.
On to SLYAVTTAV, for which the Kd in the assay with HLA-C*12:03 (setting [19]) was 0.027 µM; with HLA-A*02:01 [7] (setting [19]), 0.00137 µM.
Turning to YRTLGVFRY, the Kd in the assay with HLA-A*02:19, with HLA-A*03:01 (setting [20]), with HLA-A*02:16, with HLA-A*02:11, with HLA-A*02:12 and in the assay with HLA-A*02:03 was not below 20 µM throughout. In addition, the Kd is not below 20 µM in the assay with HLA-A*24:03 (setting [20]); not below 20 µM with HLA-A*68:02; 0.048 µM with HLA-C*07:02 (setting [21]); not below 20 µM in the assay with HLA-A*26:01 [10]; not below 20 µM with HLA-B*46:01 (setting [21]); not below 20 µM with HLA-B*18:01. Moreover, the Kd was not below 20 µM with HLA-B*39:01; not below 20 µM with HLA-B*15:17; 0.144 µM in the assay with HLA-B*27:05 [11]; not below 20 µM with HLA-B*15:01 [12]; not below 20 µM in the assay with HLA-B*51:01; not below 20 µM with HLA-A*02:01 [7] (setting [21]). Moreover, the Kd with HLA-B*57:01 was not below 20 µM.
Regarding YTSGKRSNT, the results for the IC50 with HLA-B*07:02 [8] (source organism: Zaire ebolavirus) and with HLA-A*02:01 [13] were 5.9 µM and not below 354 µM, respectively.
